Data: PMC10897489

What was measured:
Assay in all cases: ITC
[1] = molecular target: GST-NSP3 1-181 (SARS-CoV-2)
[2] = molecular target: His-NSP3 1-181 WT (SARS-CoV-2)
[3] = molecular target: FXR1 215-360 (UniProt P51114); details: reference: unphosphorylated UBAP2L 243-270 peptide
[4] = molecular target: FXR1 215-360 (human)

## FXR1 215-360 (domain or fragment)
[1]
  Kd: 2260 nM
  stoichiometry N: 0.9
[2]
  Kd: 2900 nM

## UBAP2L 243-270 (from UniProt Q14157) pS254 peptide
[3]; sites S254
  binding against the reference: lost

## UBAP2L 243-270 (from UniProt Q14157) pS262 peptide
[3]; sites S262
  binding against the reference: lost

## UBAP2L 243-270 (from UniProt Q14157) pT246 peptide
[3]; sites T246
  KD: stronger; reference 8.5

## UBAP2L 243-270 peptide (from UniProt F8W726 243-270)
[4]
  Kd: 8.53 µM
  stoichiometry N: 0.96

## UBAP2L 243-270 peptide, phosphorylated on Ser254 (from UniProt F8W726 243-270)
[4]
  Kd: 25.5 µM
  stoichiometry N: 0.92

## UBAP2L 243-270 peptide, phosphorylated on Thr246 (from UniProt F8W726 243-270)
[4]
  Kd: 3.66 µM
  stoichiometry N: 0.9
